Earlier results, collected in patent US20120245089A1, “USE OF THE SPARC MICROENVIRONMENT SIGNATURE IN THE TREATMENT OF CANCER” (ABRAXIS BIOSCIENCE, LLC, priority 2009, published 2012).

What was measured:
neuroblastoma tumor = details: purified SPARC; in vivo xenograft model
[1] = system: HOSE (human ovarian surface epithelial) and ovarian cancer cells; details: exogenous SPARC; concentration-dependent

B1: SPARC: matrix-associated protein; exogenous or purified SPARC in cited studies (protein, UniProt P09486 18-303, looked up)
SPARC: APQQEALPDETEVVEETVAEVTEVSVGANPVQVEVGEFDDGAEETEEEVVAENPCQNHHCKHGKVCELDENNTPMCVCQDPTSCPAPIGEFEKVCSNDNKTFDSSCHFFATKCTLEGTKKGHKLHLDYIGPCKYIPPCLDSELTEFPLRMRDWLKNVLVTLYERDEDNNLLTEKQKLRVKKIHENEKRLEAGDHPVELLARDFEKNYNMYIFPVHWQFGQLDQHPIDGYLSHTELAPLRAPLIPMEHCTTRFFETCDLDNDKYIALDEWAGCFGIKQKDIDKDLVI
Angiogenesis and neuroblastoma tumor growth (neuroblastoma tumor): inhibit angio-gnesis and impair neuroblastoma tumor growth
Proliferation of HOSE and ovarian cancer cells [1]: reduce the proliferation
Apoptosis in ovarian cancer cells (ovarian cancer cells): induces apoptosis
